# In article PMC3351185 (Nucleic Acids Research, 2011):
# T1: ϕ29 DNA polymerase (wild-type) (bacteriophage ϕ29, UniProt P03680 1-575)
# T1 sequence: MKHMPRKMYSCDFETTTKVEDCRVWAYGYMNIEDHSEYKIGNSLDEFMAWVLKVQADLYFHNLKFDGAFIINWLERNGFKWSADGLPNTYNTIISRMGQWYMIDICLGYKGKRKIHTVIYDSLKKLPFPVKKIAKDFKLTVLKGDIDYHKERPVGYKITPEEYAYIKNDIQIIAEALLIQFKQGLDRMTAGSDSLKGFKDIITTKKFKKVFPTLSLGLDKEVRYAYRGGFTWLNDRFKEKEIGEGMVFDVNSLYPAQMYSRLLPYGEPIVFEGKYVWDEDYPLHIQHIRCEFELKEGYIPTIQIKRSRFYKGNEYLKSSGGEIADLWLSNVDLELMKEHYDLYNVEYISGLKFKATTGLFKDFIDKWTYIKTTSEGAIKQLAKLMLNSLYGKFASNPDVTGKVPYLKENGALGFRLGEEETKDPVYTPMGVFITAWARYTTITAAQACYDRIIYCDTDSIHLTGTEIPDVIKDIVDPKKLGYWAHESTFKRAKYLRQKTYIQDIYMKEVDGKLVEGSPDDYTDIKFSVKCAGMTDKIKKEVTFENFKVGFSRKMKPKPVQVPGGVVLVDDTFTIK
# Target: T1, ϕ29 DNA polymerase (wild-type)
# Experiment: cell-based or functional assay
binder,measurement,value
"ϕ29 terminal protein mutant R158A (natural protein, bacteriophage ϕ29, UniProt P03681 1-266, looked up) MARSPRIRIKDNDKAEYARLVKNTKAKIARTKKKYGVDLTAEIDIPDLDSFETRAQFNKWKEQASSFTNRANMRYQFEKNAYGVVASKAKIAEIERNTKEVQRLVDEKIKAMKDKEYYAGGKPQGTIEQRIAMTSPAHVTGINRPHDFDFSKVRSYSALRTLEESMEMRTDPQYYEKKMIQLQLNFIKSVEGSFNSFDAADELIEELKKIPPDDFYELFLRISEISFEEFDSEGNTVENVEGNVYKILSYLEQYRRGDFDLSLKGF","TP-DNA amplification (%), activity with respect to the wild-type TP",1 % of wild-type TP
same,"TP-DNA replication, activity with respect to the wild-type TP",17 % of wild-type TP
